Substrate in this data set: COCCOCn1ccc(NC(=O)c2cc(Oc3ccc(S(C)(=O)=O)cc3)cc(-c3ncccc3C)c2)n1
Description: Activity of recombinant human pancreatic glucokinase assessed as glucose half-maximal activity.

B1: Hexokinase-4 (Homo sapiens), P35557 (protein)
chain: MLDDRARMEAAKKEKVEQILAEFQLQEEDLKKVMRRMQKEMDRGLRLETHEEASVKMLPTYVRSTPEGSEVGDFLSLDLGGTNFRVMLVKVGEGEEGQWSVKTKHQMYSIPEDAMTGTAEMLFDYISECISDFLDKHQMKHKKLPLGFTFSFPVRHEDIDKGILLNWTKGFKASGAEGNNVVGLLRDAIKRRGDFEMDVVAMVNDTVATMISCYYEDHQCEVGMIVGTGCNACYMEEMQNVELVEGDEGRMCVNTEWGAFGDSGELDEFLLEYDRLVDESSANPGQQLYEKLIGGKYMGELVRLVLLRLVDENLLFHGEASEQLRTRGAFETRFVSQVESDTGDRKQIYNILSTLGLRPSTTDCDIVRRACESVSTRAAHMCSAGLAGVINRMRESRSEDVMRITVGVDGSVYKLHPSFKERFHASVRRLTPSCEITFIESEEGSGRGAALVSAVACKKACMLGQ
For the protein B1, the Vmax turned out to be 150%.

Source of the values: ChEMBL document CHEMBL3232870, “Discovery of 3-(4-methanesulfonylphenoxy)-N-[1-(2-methoxy-ethoxymethyl)-1H-pyrazol-3-yl]-5-(3-methylpyridin-2-yl)-benzamide as a novel glucokinase activator (GKA) for the treatment of type 2 diabetes mellitus” (Bioorg Med Chem, 2014).
